In patent US20100129815:

Experiments:
[1] = target: T1, GST-MLC2v fusion protein, P08733
T1 chain: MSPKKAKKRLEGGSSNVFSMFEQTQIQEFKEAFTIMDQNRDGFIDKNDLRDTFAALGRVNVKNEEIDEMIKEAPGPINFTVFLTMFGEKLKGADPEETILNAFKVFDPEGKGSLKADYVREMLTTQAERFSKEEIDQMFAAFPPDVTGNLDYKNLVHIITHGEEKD

[2] = target: T2, GST-MLC2a fusion protein, Q9QVP4
T2 chain: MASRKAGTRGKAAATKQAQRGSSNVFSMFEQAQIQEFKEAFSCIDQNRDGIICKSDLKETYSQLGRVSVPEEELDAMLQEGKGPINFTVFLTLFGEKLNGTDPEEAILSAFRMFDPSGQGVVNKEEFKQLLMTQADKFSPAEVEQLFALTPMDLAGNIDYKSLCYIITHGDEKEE

B1: HA-tagged full length cardiac MLCK (protein)
chain: MYPYDVPDYASGVSEEDPEGLAPQGLPALGGACLATMDKKLNVLTEKVDRLLHFQEDVTEKLQCVCQGMDHLEQDLHRLEASRELSLAGSGSTPPTTAQAAWPEVLELVRAVRQEGAQHGARLEALFKMVVAVDRAITLVGSTFQNSKVADFIMQGTVPGRKGSLADGPEENKEQAEVAGVKPNHVLTTGGVQADASRTLWEESQKEDIPVRTVEGLPLIINTSLKGADLTQAGASLRQGVEVLGPGQVPLPTEAESRLPETASENTGATLELSVAIDRISEVLTSLKMSQGGGQETSSSKPDCWLSEEAMRLSSGPLPQPLGPLTPDSDIHSGDALPRIPINMQEMATPGELLETQSGSPIGSAEAPGLGTVLEDQIPKGARPFPPLPKRSSNNGGMSAEEEIGSGAEPMRGPSLATRDWRDETVGTTDLQQGIDPGAVSPEPGKDHAAQGPGRTEAGRLSSAAEAAIVVLDDSAAPPAPFEHRVVSIKDTLISAGYTVSQHEVLGGGRFGQVHRCTERSTGLALAAKIIKVKNVKDREDVKNEVNIMNQLSHVNLIQLYDAFESKSSFTLIMEYVDGGELFDRITDEKYHLTELDVVLFTRQICEGVHYLHQHYILHLDLKPENILCVSQTGHQIKIIDFGLARRYKPREKLKVNFGTPEFLAPEVVNYEFVSFPTDMWSVGVITYMLLSGLSPFLGETDAETMNFIVNCSWDFDADTFKGLSEEAKDFVSRLLVKEKSCRMSATQCLKHEWLSHLPAKASGSNVRLRSQQLLQKYMAQSKWKKHFHVVTAVNRLRKFPTCP
With B1 the “Km (Lineweaver-Burk plot, 32P incorporation into GST-MLC2v; with Ca2+/calmodulin)” value [1] was 3.9±1.2 (with Ca^2+/calmodulin), the “Km (Lineweaver-Burk plot, 32P incorporation into GST-MLC2v; with EGTA)” value [1] was 2.9±0.8 (with EGTA) and the “Km (Lineweaver-Burk plot, 32P incorporation into GST-MLC2v; without EGTA and Ca2+/calmodulin)” value [1] was “Km value of 4.3±1.5 µM”. The “in vitro kinase assay, incorporation of 32P” value [1] was “promotes incorporation of ^32P to GST-MLC2v and GST-MLC2a fusion proteins” and the “in vitro kinase assay, incorporation of 32P” value [2] was “promotes incorporation of ^32P to GST-MLC2v and GST-MLC2a fusion proteins”.
